Measurements as given in publication PMC7367873, “Dissecting the sequence determinants for dephosphorylation by the catalytic subunits of phosphatases PP1 and PP2A” (Nature Communications, 2020).

Columns and labels:
GFP-14-3-3β = GFP-14-3-3β co-IP with LC-MS/MS, untreated GFP-14-3-3β versus GFP control (14-3-3 interactome); assay type: binding, human; conditions: GFP-14-3-3β co-IP LC-MS/MS; untreated vs GFP; student's t-test; label-free quantification, 3 replicates each
[1] = tested on: GFP-14-3-3β and its binding proteins; experiment: GFP-14-3-3β co-IP with LC-MS/MS label-free quantification, untreated versus PP1c-treated; parameters: species or system human; conditions: GFP-14-3-3β co-IP LC-MS/MS; PP1 vs untreated; student's t-test; label-free quantification, 3 replicates each

Molecule	Difference (log2), untreated vs GFP (GFP-14-3-3β) [log2]	Difference (log2), PP1 vs untreated [1] [log2]
COBL (protein, UniProt O75128 1-1261, looked up) Protein cordon-bleu: MDAPRASAAKPPTGRKMKARAPPPPGKAATLHVHSDQKPPHDGALGSQQNLVRMKEALRASTMDVTVVLPSGLEKRSVLNGSHAMMDLLVELCLQNHLNPSHHALEIRSSETQQPLSFKPNTLIGTLNVHTVFLKEKVPEEKVKPGPPKVPEKSVRLVVNYLRTQKAVVRVSPEVPLQNILPVICAKCEVSPEHVVLLRDNIAGEELELSKSLNELGIKELYAWDNRRETFRKSSLGNDETDKEKKKFLGFFKVNKRSNSKGCLTTPNSPSMHSRSLTLGPSLSLGSISGVSVKSEMKKRRAPPPPGSGPPVQDKASEKVSLGSQIDLQKKKRRAPAPPPPQPPPPSPLIPNRTEDKEENRKSTMVSLPLGSGSHCSPDGAPQVLSEAEETVSVGSCFASEDTTEDSGVMSSPSDIVSLDSQQDSMKYKDKWATDQEDCSDQDLAGTPDLGPQKSPLWEKNGSENSHLRTEKAVTASNDEEDLLIAGEFRKTLAELDEDLEEMEDSYETDTSSLTSSIHGASNHCPQDAMIPHGDTDAIPVTFIGEVSDDPVDSGLFSNRNNNAGSFDSEGVASRRDSLAPLQAEHSQPHEKAREEVPALHPASHDVGKGIRVALSNISKDGNLMETAPRVTSFASNLHTDNLNAKVKDKVYGCADGERTQATERVNSQPVNEKDSNDKNAALAPTSWHQRGQNPGKSYRLKHGLTTYKIIPPKSEMRCYDRDVSLSTGAIKIDELGNLVSPHATGIRIISLSSSVPEAESQPIGKVREFWRCNSVEKHLGRPSESSARGPPSTPVPTQTQNPESRLQADPKPISPQQKSAHHEGRNPLGEGRNQPPTMGMGHVRVPAAHTTEVTFLKPQRRTSSQYVASAIAKRIGAPKVHADVVRPHGYAEKGYAGKAPVLAAPPVTVKDDRTSSPHSETQGWKDGAQWPCVTPPNNHGEDLAVGAPPRGEVIGPHRKLSTQDRPAAIHRSSCFSLVQSSQRDRVSVGQSCGFSGKQSTSSQEASSASEPRRAPDGTDPPPPHTSDTQACSRELVNGSVRAPGHGEPSHPPGGSGTESHILLEREEKPSVFSTDGNETDSIWPPSIFGPKKKFKPVVQRPVPKDTSLHSALMEAIHSAGGKDRLRKTAEHTGEGRPAKLSYTEAEGERSALLAAIRGHSGTCSLRKVASSASEELQSFRDAALSAQGSESPLLEDLGLLSPPAIPPPPPPPSQALSAPRTASRFSTGTLSNTADARQALMDAIRSGTGAARLRKVPLLV	-0.6052	-0.2795
HNRNPR (protein, UniProt O43390 2-633, looked up) Heterogeneous nuclear …: ANQVNGNAVQLKEEEEPMDTSSVTHTEHYKTLIEAGLPQKVAERLDEIFQTGLVAYVDLDERAIDALREFNEEGALSVLQQFKESDLSHVQNKSAFLCGVMKTYRQREKQGSKVQESTKGPDEAKIKALLERTGYTLDVTTGQRKYGGPPPDSVYSGVQPGIGTEVFVGKIPRDLYEDELVPLFEKAGPIWDLRLMMDPLSGQNRGYAFITFCGKEAAQEAVKLCDSYEIRPGKHLGVCISVANNRLFVGSIPKNKTKENILEEFSKVTEGLVDVILYHQPDDKKKNRGFCFLEYEDHKSAAQARRRLMSGKVKVWGNVVTVEWADPVEEPDPEVMAKVKVLFVRNLATTVTEEILEKSFSEFGKLERVKKLKDYAFVHFEDRGAAVKAMDEMNGKEIEGEEIEIVLAKPPDKKRKERQAARQASRSTAYEDYYYHPPPRMPPPIRGRGRGGGRGGYGYPPDYYGYEDYYDDYYGYDYHDYRGGYEDPYYGYDDGYAVRGRGGGRGGRGAPPPPRGRGAPPPRGRAGYSQRGAPLGPPRGSRGGRGGPAQQQRGRGSRGSRGNRGGNVGGKRKADGYNQPDSKRRQTNNQQNWGSQPIAQQPLQQGGDYSGNYGYNNDNQEFYQDTYGQQWK	0.8033	-0.2799
PWP2 (protein, UniProt Q15269 1-919, looked up) Periodic tryptophan protein 2 …: MKFAYRFSNLLGTVYRRGNLNFTCDGNSVISPVGNRVTVFDLKNNKSDTLPLATRYNVKCVGLSPDGRLAIIVDEGGDALLVSLVCRSVLHHFHFKGSVHSVSFSPDGRKFVVTKGNIAQMYHAPGKKREFNAFVLDKTYFGPYDETTCIDWTDDSRCFVVGSKDMSTWVFGAERWDNLIYYALGGHKDAIVACFFESNSLDLYSLSQDGVLCMWQCDTPPEGLRLKPPAGWKADLLQREEEEEEEEDQEGDRETTIRGKATPAEEEKTGKVKYSRLAKYFFNKEGDFNNLTAAAFHKKSHLLVTGFASGIFHLHELPEFNLIHSLSISDQSIASVAINSSGDWIAFGCSGLGQLLVWEWQSESYVLKQQGHFNSMVALAYSPDGQYIVTGGDDGKVKVWNTLSGFCFVTFTEHSSGVTGVTFTATGYVVVTSSMDGTVRAFDLHRYRNFRTFTSPRPTQFSCVAVDASGEIVSAGAQDSFEIFVWSMQTGRLLDVLSGHEGPISGLCFNPMKSVLASASWDKTVRLWDMFDSWRTKETLALTSDALAVTFRPDGAELAVATLNSQITFWDPENAVQTGSIEGRHDLKTGRKELDKITAKHAAKGKAFTALCYSADGHSILAGGMSKFVCIYHVREQILMKRFEISCNLSLDAMEEFLNRRKMTEFGNLALIDQDAGQEDGVAIPLPGVRKGDMSSRHFKPEIRVTSLRFSPTGRCWAATTTEGLLIYSLDTRVLFDPFELDTSVTPGRVREALRQQDFTRAILMALRLNESKLVQEALEAVPRGEIEVVTSSLPELYVEKVLEFLASSFEVSRHLEFYLLWTHKLLMLHGQKLKSRAGTLLPVIQFLQKSIQRHLDDLSKLCSWNHYNMQYALAVSKQRGTKRSLDPLGSEEEAEASEDDSLHLLGGGGRDSEEEMLA	0.9621	-0.2929
OSBPL3 (protein, UniProt Q9H4L5 1-887, looked up) Oxysterol-binding …: MMSDEKNLGVSQKLVSPSRSTSSCSSKQGSRQDSWEVVEGLRGEMNYTQEPPVQKGFLLKKRKWPLKGWHKRFFYLDKGILKYAKSQTDIEREKLHGCIDVGLSVMSVKKSSKCIDLDTEEHIYHLKVKSEEVFDEWVSKLRHHRMYRQNEIAMFPHEVNHFFSGSTITDSSSGVFDSISSRKRSSISKQNLFQTGSNVSFSCGGETRVPLWLQSSEDMEKCSKDLAHCHAYLVEMSQLLQSMDVLHRTYSAPAINAIQGGSFESPKKEKRSHRRWRSRAIGKDAKGTLQVPKPFSGPVRLHSSNPNLSTLDFGEEKNYSDGSETSSEFSKMQEDLCHIAHKVYFTLRSAFNIMSAEREKLKQLMEQDASSSPSAQVIGLKNALSSALAQNTDLKERLRRIHAESLLLDSPAVAKSGDNLAEENSRDENRALVHQLSNESRLSITDSLSEFFDAQEVLLSPSSSENEISDDDSYVSDISDNLSLDNLSNDLDNERQTLGPVLDSGREAKSRRRTCLPAPCPSSSNISLWNILRNNIGKDLSKVAMPVELNEPLNTLQRLCEELEYSELLDKAAQIPSPLERMVYVAAFAISAYASSYYRAGSKPFNPVLGETYECIREDKGFQFFSEQVSHHPPISACHAESRNFVFWQDVRWKNKFWGKSMEIVPIGTTHVTLPVFGDHFEWNKVTSCIHNILSGQRWIEHYGEIVIKNLHDDSCYCKVNFIKAKYWSTNAHEIEGTVFDRSGKAVHRLFGKWHESIYCGGGSSSACVWRANPMPKGYEQYYSFTQFALELNEMDPSSKSLLPPTDTRFRPDQRFLEEGNLEEAEIQKQRIEQLQRERRRVLEENHVEHQPRFFRKSDDDSWVSNGTYLELRKDLGFSKLDHPVLW	1.582	-0.2879
